Measurements as given in publication PMC9352680, “A comprehensive thermodynamic model for RNA binding by the Saccharomyces cerevisiae Pumilio protein PUF4”.

T1: PUF4 RNA-binding domain (Saccharomyces cerevisiae, UniProt P25339 537-888)
T1 sequence: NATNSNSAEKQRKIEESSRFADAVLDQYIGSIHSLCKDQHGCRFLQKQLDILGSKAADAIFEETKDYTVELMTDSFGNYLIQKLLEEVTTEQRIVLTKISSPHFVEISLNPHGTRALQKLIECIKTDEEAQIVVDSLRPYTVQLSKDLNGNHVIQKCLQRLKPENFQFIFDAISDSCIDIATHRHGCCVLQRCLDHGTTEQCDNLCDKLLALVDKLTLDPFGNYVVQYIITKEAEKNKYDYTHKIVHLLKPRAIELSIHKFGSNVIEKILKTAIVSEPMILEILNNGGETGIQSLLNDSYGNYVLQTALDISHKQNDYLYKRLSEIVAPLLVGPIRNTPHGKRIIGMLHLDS


Each binder was assayed against T1, PUF4 RNA-binding domain (assay: Mg; RNA-MaP; 20 mM Na-HEPES pH 7.4, 30 mM KOAc, 0.75 mM MgCl2, 0.1% Tween-20, 5% glycerol, 0.1 mg/mL BSA, 2 mM DTT; 25 C; 0.0125-409.6 nM protein). Conditions: tags: N-His6-TEV cleaved; C-SNAP kept, Cy3B-labelled; label: tethered on chip by stalled RNA polymerase.

Binder	Kd [nM]
UCUCUUACUGUAUAUAUCUCUCUU (ssRNA) [Id_ii_S1_P3E.2_K3.1_C3.2_[C-2A]_[T-1C]_H3.1_A3.1_F3.1_T3.2_[A10C]]	9.47
UCUCUUAAUGUAUAUAUGUCUCUU (ssRNA) [Id_ii_S1_P3E.2_K3.1_C3.2_[C-2A]_[T-1A]_H3.1_A3.1_F3.1_T3.2_[A10G]]	12.7
UCUCUUCAUGUAUAUAAUUCUCUU (ssRNA) [Id_ii_S1_P3E.2_K3.1_C3.2_[T-1A]_H3.1_A3.1_F3.1_T3.2_[T9A]_[A10T]]	11.6
UCUCUUAUUGUAUAUACCUCUCUU (ssRNA) [Id_ii_S1_P3E.2_K3.1_C3.2_[C-2A]_H3.1_A3.1_F3.1_T3.2_[T9C]_[A10C]]	17.6
UCUCUUAUUGUAUAUAUCUCUCUU (ssRNA) [Id_ii_S1_P3E.2_K3.1_C3.2_[C-2A]_H3.1_A3.1_F3.1_T3.2_[A10C]]	8.52
UCUCUUCAUGUAUAUAAGUCUCUU (ssRNA) [Id_ii_S1_P3E.2_K3.1_C3.2_[T-1A]_H3.1_A3.1_F3.1_T3.2_[T9A]_[A10G]]	6.69
UCUCUUUAUCUAUUAUCUCUU (ssRNA) [Ib_S1_P4E.1_K4.1_C4.1_H4.1_[G2A]_[A4C]_A4.1_F4.1_T4.1]	> 2300
UCUCUUCGUGUAUAUAUUUCUCUU (ssRNA) [Id_ii_S1_P3E.2_K3.1_C3.2_[T-1G]_H3.1_A3.1_F3.1_T3.2_[A10T]]	8.56
UCUCUUCCUGUAUAUACGUCUCUU (ssRNA) [Id_ii_S1_P3E.2_K3.1_C3.2_[T-1C]_H3.1_A3.1_F3.1_T3.2_[T9C]_[A10G]]	17.4
UCUCUUCCUGUAUAUAAUUCUCUU (ssRNA) [Id_ii_S1_P3E.2_K3.1_C3.2_[T-1C]_H3.1_A3.1_F3.1_T3.2_[T9A]_[A10T]]	5.34
UCUCUUAUUGUAUAUAGCUCUCUU (ssRNA) [Id_ii_S1_P3E.2_K3.1_C3.2_[C-2A]_H3.1_A3.1_F3.1_T3.2_[T9G]_[A10C]]	12.1
UCUCUUAUUGUAUAUAAUUCUCUU (ssRNA) [Id_ii_S1_P3E.2_K3.1_C3.2_[C-2A]_H3.1_A3.1_F3.1_T3.2_[T9A]_[A10T]]	12.2
UCUCUUACUGUAUAUAUUUCUCUU (ssRNA) [Id_ii_S1_P3E.2_K3.1_C3.2_[C-2A]_[T-1C]_H3.1_A3.1_F3.1_T3.2_[A10T]]	10.8
UCUCUUCGUGUAUAUAGGUCUCUU (ssRNA) [Id_ii_S1_P3E.2_K3.1_C3.2_[T-1G]_H3.1_A3.1_F3.1_T3.2_[T9G]_[A10G]]	9.62
UCUCUUAAUGUAUAUACCUCUCUU (ssRNA) [Id_ii_S1_P3E.2_K3.1_C3.2_[C-2A]_[T-1A]_H3.1_A3.1_F3.1_T3.2_[T9C]_[A10C]]	16.5
UCUCUUUGUAUCUUAUCUCUU (ssRNA) [Ic_S1_P4E.1_K4.1_C4.1_H4.1_A4.1_[A6C]_F4.1_T4.1]	4.1
UCUCUUCAUGUAUAUAUCUCUCUU (ssRNA) [Id_ii_S1_P3E.2_K3.1_C3.2_[T-1A]_H3.1_A3.1_F3.1_T3.2_[A10C]]	8.05
UCUCUUAUUGUAUAUAAAUCUCUU (ssRNA) [Id_ii_S1_P3E.2_K3.1_C3.2_[C-2A]_H3.1_A3.1_F3.1_T3.2_[T9A]]	13.9
UCUCUUAUUGUAUAUACGUCUCUU (ssRNA) [Id_ii_S1_P3E.2_K3.1_C3.2_[C-2A]_H3.1_A3.1_F3.1_T3.2_[T9C]_[A10G]]	26.9
UCUCUUAUUGUAUAUACUUCUCUU (ssRNA) [Id_ii_S1_P3E.2_K3.1_C3.2_[C-2A]_H3.1_A3.1_F3.1_T3.2_[T9C]_[A10T]]	10.3

Binder	Kd [nM]
UCUCUUACUGUAUAUAUGUCUCUU (ssRNA) [Id_ii_S1_P3E.2_K3.1_C3.2_[C-2A]_[T-1C]_H3.1_A3.1_F3.1_T3.2_[A10G]]	17.2
UCUCUUCCUGUAUAUAUGUCUCUU (ssRNA) [Id_ii_S1_P3E.2_K3.1_C3.2_[T-1C]_H3.1_A3.1_F3.1_T3.2_[A10G]]	7.59
UCUCUUCCUGUAUAUACUUCUCUU (ssRNA) [Id_ii_S1_P3E.2_K3.1_C3.2_[T-1C]_H3.1_A3.1_F3.1_T3.2_[T9C]_[A10T]]	6.95
UCUCUUCCUGUAUAUAUCUCUCUU (ssRNA) [Id_ii_S1_P3E.2_K3.1_C3.2_[T-1C]_H3.1_A3.1_F3.1_T3.2_[A10C]]	4.74
UCUCUUAUUGUAUAUAGUUCUCUU (ssRNA) [Id_ii_S1_P3E.2_K3.1_C3.2_[C-2A]_H3.1_A3.1_F3.1_T3.2_[T9G]_[A10T]]	6.25
UCUCUUUAUGUAUUAUCUCUU (ssRNA) [Ib_S1_P4E.1_K4.1_C4.1_H4.1_[G2A]_[A4G]_A4.1_F4.1_T4.1]	36
UCUCUUCGUGUAUAUAUCUCUCUU (ssRNA) [Id_ii_S1_P3E.2_K3.1_C3.2_[T-1G]_H3.1_A3.1_F3.1_T3.2_[A10C]]	7.58
UCUCUUAUUGUAUAUAACUCUCUU (ssRNA) [Id_ii_S1_P3E.2_K3.1_C3.2_[C-2A]_H3.1_A3.1_F3.1_T3.2_[T9A]_[A10C]]	12.9
UCUCUUCGUGUAUAUACCUCUCUU (ssRNA) [Id_ii_S1_P3E.2_K3.1_C3.2_[T-1G]_H3.1_A3.1_F3.1_T3.2_[T9C]_[A10C]]	17.5
UCUCUUCAUGUAUAUAAAUCUCUU (ssRNA) [Id_ii_S1_P3E.2_K3.1_C3.2_[T-1A]_H3.1_A3.1_F3.1_T3.2_[T9A]]	13.1
UCUCUUCCUGUAUAUAACUCUCUU (ssRNA) [Id_ii_S1_P3E.2_K3.1_C3.2_[T-1C]_H3.1_A3.1_F3.1_T3.2_[T9A]_[A10C]]	6.69
UCUCUUACUGUAUAUAAAUCUCUU (ssRNA) [Id_ii_S1_P3E.2_K3.1_C3.2_[C-2A]_[T-1C]_H3.1_A3.1_F3.1_T3.2_[T9A]]	16.3
UCUCUUCAUGUAUAUAGCUCUCUU (ssRNA) [Id_ii_S1_P3E.2_K3.1_C3.2_[T-1A]_H3.1_A3.1_F3.1_T3.2_[T9G]_[A10C]]	5.33
UCUCUUUUUGUAUUAUCUCUU (ssRNA) [Ib_S1_P4E.1_K4.1_C4.1_H4.1_[G2T]_[A4G]_A4.1_F4.1_T4.1]	25.7
UCUCUUCCUGUAUAUAUUUCUCUU (ssRNA) [Id_ii_S1_P3E.2_K3.1_C3.2_[T-1C]_H3.1_A3.1_F3.1_T3.2_[A10T]]	5.94
UCUCUUCAUGUAUAUAACUCUCUU (ssRNA) [Id_ii_S1_P3E.2_K3.1_C3.2_[T-1A]_H3.1_A3.1_F3.1_T3.2_[T9A]_[A10C]]	16.9
UCUCUUAAUGUAUAUAUCUCUCUU (ssRNA) [Id_ii_S1_P3E.2_K3.1_C3.2_[C-2A]_[T-1A]_H3.1_A3.1_F3.1_T3.2_[A10C]]	10.4
UCUCUUCGUGUAUAUAUAUCUCUU (ssRNA) [Id_ii_S1_P3E.2_K3.1_C3.2_[T-1G]_H3.1_A3.1_F3.1_T3.2]	5.37
UCUCUUAAUGUAUAUAAUUCUCUU (ssRNA) [Id_ii_S1_P3E.2_K3.1_C3.2_[C-2A]_[T-1A]_H3.1_A3.1_F3.1_T3.2_[T9A]_[A10T]]	8.64
UCUCUUACUGUAUAUAACUCUCUU (ssRNA) [Id_ii_S1_P3E.2_K3.1_C3.2_[C-2A]_[T-1C]_H3.1_A3.1_F3.1_T3.2_[T9A]_[A10C]]	26.7

Binder	Kd [nM]
UCUCUUCAUGUAUAUACUUCUCUU (ssRNA) [Id_ii_S1_P3E.2_K3.1_C3.2_[T-1A]_H3.1_A3.1_F3.1_T3.2_[T9C]_[A10T]]	13.2
UCUCUUAUUGUAUAUAUGUCUCUU (ssRNA) [Id_ii_S1_P3E.2_K3.1_C3.2_[C-2A]_H3.1_A3.1_F3.1_T3.2_[A10G]]	12.3
UCUCUUUGCGUAUUAUCUCUU (ssRNA) [Ib_S1_P4E.1_K4.1_C4.1_H4.1_[T3C]_[A4G]_A4.1_F4.1_T4.1]	> 2300
UCUCUUCAUGUAUAUAGUUCUCUU (ssRNA) [Id_ii_S1_P3E.2_K3.1_C3.2_[T-1A]_H3.1_A3.1_F3.1_T3.2_[T9G]_[A10T]]	5.84
UCUCUUAAUGUAUAUAAAUCUCUU (ssRNA) [Id_ii_S1_P3E.2_K3.1_C3.2_[C-2A]_[T-1A]_H3.1_A3.1_F3.1_T3.2_[T9A]]	20.8
UCUCUUCCUGUAUAUAUAUCUCUU (ssRNA) [Id_ii_S1_P3E.2_K3.1_C3.2_[T-1C]_H3.1_A3.1_F3.1_T3.2]	3.76
UCUCUUCGUGUAUAUAAUUCUCUU (ssRNA) [Id_ii_S1_P3E.2_K3.1_C3.2_[T-1G]_H3.1_A3.1_F3.1_T3.2_[T9A]_[A10T]]	8.53
UCUCUUAAUGUAUAUAUUUCUCUU (ssRNA) [Id_ii_S1_P3E.2_K3.1_C3.2_[C-2A]_[T-1A]_H3.1_A3.1_F3.1_T3.2_[A10T]]	13.4
UCUCUUCGUGUAUAUAAAUCUCUU (ssRNA) [Id_ii_S1_P3E.2_K3.1_C3.2_[T-1G]_H3.1_A3.1_F3.1_T3.2_[T9A]]	11.9
UCUCUUAUUGUAUAUAUUUCUCUU (ssRNA) [Id_ii_S1_P3E.2_K3.1_C3.2_[C-2A]_H3.1_A3.1_F3.1_T3.2_[A10T]]	9.49
UCUCUUAUUGUAUAUAUAUCUCUU (ssRNA) [Id_ii_S1_P3E.2_K3.1_C3.2_[C-2A]_H3.1_A3.1_F3.1_T3.2]	4.87
UCUCUUCGUGUAUAUAGUUCUCUU (ssRNA) [Id_ii_S1_P3E.2_K3.1_C3.2_[T-1G]_H3.1_A3.1_F3.1_T3.2_[T9G]_[A10T]]	3.77
UCUCUUCCUGUAUAUAGUUCUCUU (ssRNA) [Id_ii_S1_P3E.2_K3.1_C3.2_[T-1C]_H3.1_A3.1_F3.1_T3.2_[T9G]_[A10T]]	4.07
UCUCUUCCUGUAUAUACCUCUCUU (ssRNA) [Id_ii_S1_P3E.2_K3.1_C3.2_[T-1C]_H3.1_A3.1_F3.1_T3.2_[T9C]_[A10C]]	24.3
UCUCUUCCUGUAUAUAAGUCUCUU (ssRNA) [Id_ii_S1_P3E.2_K3.1_C3.2_[T-1C]_H3.1_A3.1_F3.1_T3.2_[T9A]_[A10G]]	12.9
UCUCUUUUUUUAUUAUCUCUU (ssRNA) [Ib_S1_P4E.1_K4.1_C4.1_H4.1_[G2T]_[A4T]_A4.1_F4.1_T4.1]	> 2300
UCUCUUCCUGUAUAUACAUCUCUU (ssRNA) [Id_ii_S1_P3E.2_K3.1_C3.2_[T-1C]_H3.1_A3.1_F3.1_T3.2_[T9C]]	17.7
UCUCUUCAUGUAUAUACCUCUCUU (ssRNA) [Id_ii_S1_P3E.2_K3.1_C3.2_[T-1A]_H3.1_A3.1_F3.1_T3.2_[T9C]_[A10C]]	17.7
